This note sets out measurements from patent US20250270289A1, “SEQUENCE-DEFINED POLYMERS WITH ONE OR MORE AZIDES, METHODS OF MAKING, AND METHODS OF USE THEREOF” (Yale University, priority 2021, published 2025).

Experiment [1] has as its target GST-Src SH2 [GST: P08515]. As to the kind of experiment: fluorescence polarization competition, EC50 of pnY peptide against that of pTyr peptide. (In fluorescence polarisation assays a small probe gives low polarisation when free and higher when bound to something large.)
Experiment [2] addresses GST-Src SH2 [GST: P08515]. As to the kind of experiment: fluorescence polarization competition; competitor FITC-pTyrEEI on GST-Src SH2.
The target of experiment [3] is GST-Src SH2 [GST: P08515]. As to the kind of experiment: fluorescence polarization, GST-Src SH2 titrated on 10 nM FITC-pTyrEEI, one-site binding model.
GST-Src SH2 [GST: P08515], sequence (P08515 whole entry): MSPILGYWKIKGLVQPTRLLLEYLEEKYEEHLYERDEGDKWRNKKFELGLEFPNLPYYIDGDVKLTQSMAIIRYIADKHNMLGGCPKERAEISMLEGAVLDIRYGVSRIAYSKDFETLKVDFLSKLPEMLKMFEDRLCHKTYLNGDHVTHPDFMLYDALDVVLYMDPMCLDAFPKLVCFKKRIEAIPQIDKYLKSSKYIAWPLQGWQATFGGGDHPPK

The term EC50 denotes the concentration at which the effect is half-maximal. The low end stands for greater potency, the high end for weaker potency. pnYEEI (peptide) registered a Decrease in binding affinity with SH2 (against pTyr) in experiment [1] of 17 fold. This substance also gave an EC50 in experiment [2] of 12800 nM.
As usually defined, the Kd is the concentration at which binding is half-saturated. A lower Kd goes with higher affinity. As for FITC-pTyrEEI (peptide), in experiment [3], the Kd was 280 nM.
Substance pTyrEEI (peptide) registered an EC50 in experiment [2] of 740 nM.
